Results: patent publication US20060134740A1
The star is where a group is joined. AMC = Cc1cc(=O)oc2cc(N*)ccc12

Tests used:
[1] = biological target: subtilisin BPN' mutant S149 (Bacillus amyloliquefaciens) (UniProt P00782); experiment: transient state kinetics with fluorogenic substrate
[2] = biological target: fusion of the pR8 prodomain onto the N-terminus of the 56 amino acid B domain (GB) of streptococcal Protein G, P06654
[3] = biological target: subtilisin BPN' mutant S149 (Bacillus amyloliquefaciens) (UniProt P00782); experiment: transient state kinetics with fluorogenic substrates

Binder	Ks [1] [µM]	cleavage of the fusion protein [2]	fold preference over sDVRAF-AMC [3] [fold]
{code s}-DVRAF-{AMC} [fluorogenic substrate sDVRAF-AMC]	5	–	–
wild type subtilisin BPN' (protein) AQSVPYGVSQIKAPALHSQGYTGSNVKVAVIDSGIDSSHPDLKVAGGASMVPSETNPFQDNNSHGTHVAGTVAALNNSIGVLGVAPSASLYAVKVLGADGSGQYSWIINGIEWAIANNMDVINMSLGGPSGSAALKAAVDKAVASGVVVVAAAGNEGTSGSSSTVGYPGKYPSVIAVGAVDSSNQRASFSSVGPELDVMAPGVSIQSTLPGNKYGAYNGTSMASPHVAGAAALILSKHPNWTNTQVRSSLENTTTKLGDSFYYGKGLINVQAAAQ	–	The fusion protein was rapidly and specifically cleaved to release GB from pR8	–
{code s}-DFRAM-{AMC} [fluorogenic pentapeptide substrate sDFRAM-AMC]	1	–	5
